One test concerns the target T1, CD137 (human, UniProt Q07011 24-186).
T1 construct: Whole on GS-H2-huCD137 reporter cells in the reporter assays; also called 4-1BB
Put plainly: FCM or ELISA, graded. In general terms: In an ELISA, binding on a coated surface is turned into a signal by an enzyme label.

In a further test the target is T2, CD19 (human, UniProt P15391 20-556).
T2 construct: whole, on cells
T2 sequence (looked up): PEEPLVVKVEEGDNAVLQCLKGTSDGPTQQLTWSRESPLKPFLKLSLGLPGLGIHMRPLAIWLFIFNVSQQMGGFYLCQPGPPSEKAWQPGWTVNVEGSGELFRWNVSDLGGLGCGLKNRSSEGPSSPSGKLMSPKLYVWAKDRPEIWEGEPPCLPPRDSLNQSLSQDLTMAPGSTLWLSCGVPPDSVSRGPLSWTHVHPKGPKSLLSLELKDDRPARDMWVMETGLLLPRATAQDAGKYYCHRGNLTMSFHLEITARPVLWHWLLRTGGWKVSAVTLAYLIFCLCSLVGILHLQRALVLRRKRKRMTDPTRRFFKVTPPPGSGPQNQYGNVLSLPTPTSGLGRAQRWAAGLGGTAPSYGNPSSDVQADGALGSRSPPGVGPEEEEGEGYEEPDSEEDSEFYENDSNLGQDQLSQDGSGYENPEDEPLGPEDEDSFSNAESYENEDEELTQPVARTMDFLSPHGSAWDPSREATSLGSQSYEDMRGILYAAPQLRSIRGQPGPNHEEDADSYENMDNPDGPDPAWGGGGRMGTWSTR
In words: CHO cells overexpressing CD19, graded.

B1: Ly2943 (multi-specific antibody)
chain 1: QVQLQQPGAELVKPGASVKMSCKASGYTFTSYNMHWVKQTPGRGLEWIGAIYPGNGDTSYNQKFKGKATLTADKSSSTAYMQLSSLTSEDSAVYYCARSTYYGGDWYFNVWGAGTTVTVSAASVAAPSVFIFPPSDEQLKSGTASVVCLLNNFYPREAKVQWKVDNALQSGNSQESVTEQDSKDSTYSLSSTLTLSKADYEKHKVYACEVTHQGLSSPVTKSFNRGECGGGGSGGGGSGGGGSGGGGSEVQLVESGGGLVQPGGSLRLSCAASGFTFSTYAMNWVRQAPGKGLEWVGRIRSKYNNYATYYADSVKGRFTISRDDSKNSLYLQMNSLKTEDTAVYYCVRHGNFGNSYVSWFAYWGQGTLVTVSSGGGGSDKTHTCPPCPAPELLGPSVFLFPPKPKDTLMISRTPEVTCVVVDVSHEDPEVKFNWYVDGVEVHNAKTKPREEQYNSTYRVVSVLTVLHQDWLNGKEYKCKVSNKALGAPIEKTISKAKGQPREPQVYTLPPSREEMTKNQVSLWCLVKGFYPSDIAVEWESNGQPENNYKTTPPVLDSDGSFFLYSKLTVDKSRWQQGNVFSCSVMHEALHNHYTQKSLSLSPGKGGGGSGGGGSGGGGSGGGGSQVQLVQSGAEVKKPGASVKVSCKASGYTFAGFEMHWVRQAPGQGLEWMGAIDPKTGGTDYNQKFKDRVTMTRDTSISTAYMELSRLRSDDTAVYYCARDLGYFDVWGQGTLVTVSS
chain 2: QVQLQQSGAELVRPGSSVKISCKASGYAFSSYWMNWVKQRPGQGLEWIGQIWPGDGDTNYNGKFKGKATLTADESSSTAYMQLSSLASEDSAVYFCARRETTTVGRYYYAMDYWGQGTTVTVSSASTKGPSVFPLAPSSKSTSGGTAALGCLVKDYFPEPVTVSWNSGALTSGVHTFPAVLQSSGLYSLSSVVTVPSSSLGTQTYICNVNHKPSNTKVDKKVEPKSCGGGGSGGGGSGGGGSGGGGSQAVVTQEPSLTVSPGGTVTLTCRSSTGAVTTSNYANWVQQKPGQAPRGLIGGTNKRAPWTPARFSGSLLGGKAALTITGAQAEDEADYYCALWYSNLWVFGGGTKLTVLGGGGSDKTHTCPPCPAPELLGPSVFLFPPKPKDTLMISRTPEVTCVVVDVSHEDPEVKFNWYVDGVEVHNAKTKPREEQYNSTYRVVSVLTVLHQDWLNGKEYKCKVSNKALGAPIEKTISKAKGQPREPQVYTLPPSREEMTKNQVSLSCAVKGFYPSDIAVEWESNGQPENNYKTTPPVLDSDGSFFLVSKLTVDKSRWQQGNVFSCSVMHEALHNRFTQKSLSLSPGKGGGGSGGGGSGGGGSGGGGSDIQMTQSPSSLSASVGDRVTITCRASQDIRSNLNWYQQKPGGAVKLLIYYTSRLHSGVPSRFSGSGSGTDYTLTISSLQPEDFATYFCQQSEKLPRTFGGGTKVEIR
chain 3: QIVLSQSPAILSASPGEKVTMTCRASSSVSYIHWFQQKPGSSPKPWIYATSNLASGVPVRFSGSGSGTSYSLTISRVEAEDAATYYCQQWTSNPPTFGGGTKLEIKSSASTKGPSVFPLAPSSKSTSGGTAALGCLVKDYFPEPVTVSWNSGALTSGVHTFPAVLQSSGLYSLSSVVTVPSSSLGTQTYICNVNHKPSNTKVDKKVEPKSC
chain 4: not shown
notes: CD19/CD20/CD3/CD137
Take B1: the binding result in the test with CD137 and with CD19 was “binds” in each case.

The values are drawn from patent EP4803150A2 (Lyvgen Biopharma Holdings Limited, dated 2026).
